Assays:
[1] = biological target: mf CTLA-4 extracellular domain (aa 1-161) fused to the trans-membrane and cytoplasmic domain of hCD300a (aa 181-299), on Jurkat/NFAT-Luc cells (Macaca fascicularis; human) (UniProt G7PL88); experiment: cell-based or functional assay
[2] = biological target: mf CTLA-4 extracellular domain (aa 1-161) fused to the trans-membrane and cytoplasmic domain of hCD300a (aa 181-299), on Jurkat/NFAT-Luc cells (Macaca fascicularis; human) (UniProt G7PL88); experiment: ECL cell binding, Jurkat/NFAT-Luc/mfCTLA-4-hCD300a cells
[3] = biological target: human CTLA-4 (amino acids M1-N223) on stably transfected VI-fibroblast cells (human) (UniProt P16410); experiment: ECL cell binding, VI-fibroblast/hCTLA-4 cells
human CTLA-4 (amino acids M1-N223) on stably transfected VI-fibroblast cells (human), sequence (P16410 36-223 limits assumed): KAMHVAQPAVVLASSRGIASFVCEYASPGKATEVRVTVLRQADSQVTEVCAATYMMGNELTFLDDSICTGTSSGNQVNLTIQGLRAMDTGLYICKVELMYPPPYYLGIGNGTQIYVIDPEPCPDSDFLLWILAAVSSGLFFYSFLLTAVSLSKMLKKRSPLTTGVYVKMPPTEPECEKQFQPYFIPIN

mf CTLA-4 extracellular domain (aa 1-161) fused to the trans-membrane and cytoplasmic domain of hCD300a (aa 181-299), on Jurkat/NFAT-Luc cells (Macaca fascicularis; human), sequence (Q9UGN4 other isoform, or with tags, fused parts or gaps, form in doubt): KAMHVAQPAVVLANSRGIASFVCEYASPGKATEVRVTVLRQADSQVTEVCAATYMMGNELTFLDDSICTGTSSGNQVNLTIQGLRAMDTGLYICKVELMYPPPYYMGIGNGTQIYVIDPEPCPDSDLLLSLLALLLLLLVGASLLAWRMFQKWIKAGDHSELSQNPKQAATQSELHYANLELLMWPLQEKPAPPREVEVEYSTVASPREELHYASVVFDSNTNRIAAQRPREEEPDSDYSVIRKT

| EC50, T-cell/APC IL-2 release assay, APC HEK293/hCD20/hCD86 [1] | EC50, T-cell/APC NFAT-luciferase assay, +Fc Block [1] | EC50, T-cell/APC NFAT-luciferase assay, -Fc Block [1] | Fold induction of IL-2 at 100 nM, APC HEK293/hCD20/hCD86 [1] | EC50 [2] | ratio of RLU signal to parental VI-fibroblast at 0.4 nM Ab [3] | Binder |
| --- | --- | --- | --- | --- | --- | --- |
| 40.9 nM | 1.77 nM | 1.28 nM | 4.4 fold | 0.11 nM | – | H1H19303P (antibody, human IgG1, kappa, V domains shown) VH: EVQLVESGGGLVQPGGSLRLSCAASGFTFSNYEMSWVRQAPGKGLEWVSSIRTSGTTKYYADSMKGRFTISRDNAKNSLYLQMNSLRAEDTAVYYCAGGGTFLHYWGQGTLVTVSS VL: DIQMTQSPSSVSASVGDRVTITCRASQGIASYLAWYQQKPGKAPKLLIYAASSLQTGVPSRFSGSGYGTDFTLTISSLQPEDFATYYCQQAKSFPMYTFGQGTKLEIKR |
| 11.4 nM | 1.83 nM | 3.05 nM | 6.5 fold | 0.22 nM | – | H1H19273P (antibody, human IgG1, V domains shown) VH: QITLKESGPTLVKPTQTLTLTCTFSGFSLSTSGVGVGWIRQSPGRALEWLALIYWNDHERYSPSLKSRLTITKDTSKNLVVLAMANMDPVDTATYFCAHRNIEYRRSYFFDYWGQGTLVTVSS VL: DIQMTQSPSSVSASVRDRVTVTCRASQDINNWLAWYQQKPGKAPKLLIYAASSLQSGVPSRFSGSGSGTDFTLTISSLQPEDFATYYCQQANTFPFTFGPGTKVDIK |
| – | – | – | – | – | 1 | H1H19264P (antibody, human IgG1, V domains shown) VH: QVQLVQSGAEVKKPGASVKVSCKASDYTFTSYGISWVRQAPGQGLEWMGWISVYNGNINYAQKFKGRVTMTTDTSTSTAYMELRSLRSDDMAVYYCARVTQFGMDVWGQGTTVTVSS VL: DIQMTQSPSSLSASVGDRVTITCRASQSISSNLNWYQQNPGKAPKLLIYTTSSLQGGVPSRFSGSGSGTDFTLTISSLQPEDFATYYCQQSFRTPFTFGPGTKVDIK |
| 21.9 nM | 1.84 nM | 1.34 nM | 6.1 fold | 0.14 nM | – | H1H19313P (antibody, human IgG1, V domains shown) VH: QITLKESGPTLVKPTQTLTLTCTFSGFSLSTSGVGVGWIRQPPGVALEWLALIYWNDDKRFSPSLKSRLTITKDTSKNQVVLTMTNMDPVDTATYYCAHRRLGLYYFDYWGQGTLVTVSS VL: DIQLTQSPSFLSASVGDRVTITCWASQGISSYLAWYQQKPGKAPKLLIYAASTLQSGVPSRFSGSGSGTEFTLTISSLQPEDFATYYCQQVHIYPFTFGPGTKVDIK |

— patent US20210040232A1
